Assay results reported in patent US20250034268A1 (Innovent, published 2025).
Residue numbers refer to the chain shown, from its start.

How the values were obtained:
[1] = target: T1, human BCMA expressed on the cell surface (human, UniProt Q02223 1-184); assay: flow cytometry on L363 cells
T1 construct: The same molecule is used here for hBCMA-CHO GS cells and for the endogenous BCMA of the myeloma lines; also called Human BCMA CHO-S cell; H929
T1 sequence: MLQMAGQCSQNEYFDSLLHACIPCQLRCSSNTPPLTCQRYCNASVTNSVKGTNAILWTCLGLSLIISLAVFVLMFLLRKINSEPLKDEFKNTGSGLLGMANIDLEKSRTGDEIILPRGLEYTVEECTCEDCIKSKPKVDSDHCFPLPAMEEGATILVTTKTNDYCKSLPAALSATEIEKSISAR

[2] = target: T1, human BCMA expressed on the cell surface; assay: flow cytometry on U266 cells
[3] = target: T1, human BCMA expressed on the cell surface; assay: flow cytometry on MM.1s cells
[4] = target: T1, human BCMA expressed on the cell surface; assay: flow cytometry on RPMI8226 cells
[5] = target: T1, human BCMA expressed on the cell surface; assay: flow cytometry on AMO1 cells
[6] = target: T1, human BCMA expressed on the cell surface; assay: flow cytometry on H929 cells
[7] = target: T1, human BCMA expressed on the cell surface; assay: flow cytometry, 10 nM antibody on H929 cells
[8] = target: T1, human BCMA expressed on the cell surface; assay: flow cytometry, 10 nM antibody on human BCMA CHO-S cells against CHO-S cells
Human BCMA-IHM = target: T2, Human BCMA-IHM (human, UniProt Q02223 1-54); assay: BLI (ForteBio Octet), IgG captured on AHC probe, antigen in solution, monovalent
T2 construct: also called BCMA from human (mobile phase); not shown: 'IHM' is not explained; it may be a tag
T2 sequence (looked up): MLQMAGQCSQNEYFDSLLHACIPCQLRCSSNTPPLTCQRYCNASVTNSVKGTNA

Human BCMA monomer = target: T3, Human BCMA monomer (human, UniProt Q02223 1-54, limits assumed); assay: as above
T3 construct: also called BCMA from human (mobile phase)
T3 sequence (looked up): T2 sequence (looked up)

[9] = target: T4, Cynomolgus monkey BCMA-Fc (cynomolgus monkey, UniProt A0A2K5UD97 1-53); assay: BLI (ForteBio Octet), IgG captured on AHC probe, antigen in solution, avid
T4 construct: also called BCMA from cynomolgus monkey (mobile phase); not shown: Fc part

Mouse BCMA-Fc = target: T5, Mouse BCMA-Fc (mouse, UniProt O88472 1-49, limits assumed); assay: as above
T5 construct: also called BCMA from mouse (mobile phase); not shown: Fc part

[10] = target: T1, human BCMA expressed on the cell surface; assay: flow cytometry, 10 nM antibody on human BCMA CHO-S cells
[11] = target: T1, human BCMA expressed on the cell surface; assay: flow cytometry on hBCMA-CHO-GS cells
[12] = target: T6, cynomolgus monkey BCMA expressed on CHO GS cells (cynomolgus monkey, UniProt A0A2K5UD97 1-183); assay: flow cytometry on cynoBCMA-CHO-GS cells
T6 construct: whole, on cells; also called cynoBCMA-CHO GS; cynoBCMA-CHO-GS

[13] = target: T7, recombinant mouse BCMA protein (mouse, UniProt O88472 1-49, limits assumed); assay: SPR (Biacore T200), antibody captured by anti-human Fc on CM5 chip, antigen 1.25-40 nM, 1:1 model
T7 construct: The construct is not described
T7 chain (looked up): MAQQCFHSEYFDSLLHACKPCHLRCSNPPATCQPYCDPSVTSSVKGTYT

[14] = target: T8, recombinant rat BCMA protein (rat); assay: as above
T8 construct: The construct is not described

[15] = target: T9, recombinant human BCMA protein (human, UniProt Q02223 1-54, limits assumed); assay: as above
T9 construct: The construct is not described
T9 sequence (looked up): T2 sequence (looked up)

[16] = target: T10, recombinant cynomolgus monkey BCMA protein (cynomolgus monkey, UniProt A0A2K5UD97 1-53); assay: as above
T10 construct: The construct is not described

[17] = target: T11, mouse BCMA expressed on CHO GS cells (mouse, UniProt O88472 1-185); assay: flow cytometry on mBCMA-CHO-GS cells
T11 construct: whole, on cells; also called mBCMA-CHO GS; mBCMA-CHO-GS
T11 sequence (looked up): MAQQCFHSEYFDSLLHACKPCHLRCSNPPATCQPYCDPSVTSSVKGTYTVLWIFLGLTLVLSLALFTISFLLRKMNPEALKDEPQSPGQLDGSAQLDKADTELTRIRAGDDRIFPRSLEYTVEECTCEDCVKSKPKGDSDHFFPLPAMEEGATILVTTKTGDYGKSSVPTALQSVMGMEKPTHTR

T4 sequence (A0A2K5UD97 entry or part of it): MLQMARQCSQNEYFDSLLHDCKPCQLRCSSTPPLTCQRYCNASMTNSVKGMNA
T6 sequence (A0A2K5UD97 entry or part of it): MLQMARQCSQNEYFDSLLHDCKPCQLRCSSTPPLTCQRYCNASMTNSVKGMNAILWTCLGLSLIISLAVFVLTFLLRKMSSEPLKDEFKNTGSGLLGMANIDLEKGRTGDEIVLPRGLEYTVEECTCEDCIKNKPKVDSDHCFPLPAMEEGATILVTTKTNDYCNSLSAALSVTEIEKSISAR

B1: ADI-38484 PG antibody (antibody, human IgG1, kappa, V domains shown)
VH: QVQLVQSGAEVKKPGSSVKVSCKASGGTFSNDVISWVRQAPGQGLEWMGVIIPIFGIANYAQKFQGRVTITADESTSTAYMELSSLRSEDTAVYYCARGRGYYSSWLHDIWGQGTMVTVSS
VL: DIQMTQSPSSLSASVGDRVTITCQASQDITNYLNWYQQKPGKAPKLLIYDASNLETGVPSRFSGSGSGTDFTFTISSLQPEDIATYYCQQAFDLITFGGGTKVEIKR
notes: Expressed in HEK293 cells
EC50 [1]: 0.934 nM | EC50 [2]: 2.79 nM | EC50 [3]: 1.95 nM | EC50 [4]: 0.428 nM | EC50 [5]: 4.25 nM | EC50 [6]: ~1.55 nM

B2: anti-BCMA parent antibody ADI-34861 (antibody, V domains shown)
VH: QLQLQESGPGLVKPSETLSLTCTVSGGSISSSSYYWGWIRQPPGKGLEWIGSISYSGSTYYNPSLKSRVTISVDTSKNQFSLKLSSVTAADTAVYYCARDRGDTILDVWGQGTMVTVSS
VL: DIQMTQSPSSLSASVGDRVTITCRASQSISRYLNWYQQKPGKAPKLLIYAASSLQSGVPSRFSGSGSGTDFTLTISSLQPEDFATYYCQQKYFDITFGGGTKVEIK
notes: Tested as IgG (captured by anti-human Fc probe)
FON, Fold Over Negative [7]: 6 fold | MFI [7]: 1400 | FOB, Fold Over Background [8]: 4 fold | Kd (Human BCMA-IHM): 51.4 nM | Kd (Human BCMA monomer): 17.3 nM | Kd [9]: 2.11 nM | Kd (Mouse BCMA-Fc): 3.68 nM | MFI [10]: 1000

B3: ADI-38497 PG antibody (antibody, V domains shown)
VH: B2 VH with S30V, G37T, Y55I, S56A, T104Q, G110S
VL: DIQMTQSPSSLSASVGDRVTITCRASQSISRYLNWYQQKPGKAPKLLIYAASSLQSGVPSRFSGSGSGTDFTLTISSLQPEDFATYYCQQKYFDITFGGGTKVEIKR
notes: Expressed in HEK293 cells
EC50 [1]: 5.11 nM | EC50 [11]: 1.49 nM | EC50 [12]: 1.69 nM | Kd [13]: 1.77 nM | koff [13]: 0.000872 s⁻¹ | kon [13]: 492000 M⁻¹ s⁻¹ | Kd [14]: 83.1 nM | koff [14]: 0.0831 s⁻¹ | kon [14]: 1e+06 M⁻¹ s⁻¹ | Kd [15]: 0.061 nM | koff [15]: 1.76e-05 s⁻¹ | kon [15]: 288000 M⁻¹ s⁻¹ | Kd [16]: 0.0301 nM | koff [16]: 1.03e-05 s⁻¹ | kon [16]: 340000 M⁻¹ s⁻¹ | EC50 [2]: 1.79 nM | EC50 [3]: 1.01 nM | EC50 [4]: 2.12 nM | EC50 [5]: 2.43 nM | EC50 [6]: ~1.71 nM | EC50 [17]: 1.18 nM

B4: antibody ADI-38491 (antibody, V domains shown)
VH: B2 VH with S30V, G37T, Y55I, S56A
VL: B2 VL
FON, Fold Over Negative [7]: 5 fold | MFI [7]: 1100 | FOB, Fold Over Background [8]: 4 fold | Kd (Human BCMA-IHM): 2.62 nM | Kd (Human BCMA monomer): 1.02 nM | Kd [9]: 1.27 nM | Kd (Mouse BCMA-Fc): 3.04 nM | MFI [10]: 996

B5: antibody ADI-38497 (antibody, V domains shown)
VH: B2 VH with S30V, G37T, Y55I, S56A, T104Q, G110S
VL: B2 VL
FON, Fold Over Negative [7]: 26 fold | MFI [7]: 5670 | FOB, Fold Over Background [8]: 8 fold | Kd (Human BCMA-IHM): 1.02 nM | Kd (Human BCMA monomer): 0.621 nM | Kd [9]: 0.602 nM | Kd (Mouse BCMA-Fc): 0.503 nM | MFI [10]: 2320

B6: anti-BCMA parent antibody ADI-34857 (antibody, V domains shown)
VH: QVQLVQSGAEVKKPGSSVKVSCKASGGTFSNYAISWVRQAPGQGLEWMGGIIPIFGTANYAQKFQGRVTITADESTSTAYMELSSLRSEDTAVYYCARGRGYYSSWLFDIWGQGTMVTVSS
VL: DIQMTQSPSSLSASVGDRVTITCQASQDITNYLNWYQQKPGKAPKLLIYDASNLETGVPSRFSGSGSGTDFTFTISSLQPEDIATYYCQQAFDLITFGGGTKVEIK
notes: as for B2
FON, Fold Over Negative [7]: 10 fold | MFI [7]: 2280 | FOB, Fold Over Background [8]: 3 fold | Kd (Human BCMA-IHM): 44 nM | Kd (Human BCMA monomer): 35.9 nM | Kd [9]: 1.47 nM | MFI [10]: 877

B7: antibody ADI-38484 (antibody, V domains shown)
VH: B1 VH
VL: B6 VL
FON, Fold Over Negative [7]: 35 fold | MFI [7]: 7720 | FOB, Fold Over Background [8]: 11 fold | Kd (Human BCMA-IHM): 0.539 nM | Kd (Human BCMA monomer): 0.0794 nM | Kd [9]: 1.07 nM | Kd (Mouse BCMA-Fc): 0.85 nM | MFI [10]: 2720

B8: antibody ADI-38481 (antibody, V domains shown)
VH: B1 VH with H108L
VL: B6 VL
FON, Fold Over Negative [7]: 31 fold | MFI [7]: 6660 | FOB, Fold Over Background [8]: 10 fold | Kd (Human BCMA-IHM): 0.496 nM | Kd (Human BCMA monomer): 0.1 nM | Kd [9]: 0.897 nM | Kd (Mouse BCMA-Fc): 2.44 nM | MFI [10]: 2620
